The target in experiment [1] is T1, PAC1-R on PAC1-R-expressing PC-12 cells (UniProt P32215 20-523).
T1 construct: whole, on cells; also called PAC1 receptor
T1 sequence (looked up): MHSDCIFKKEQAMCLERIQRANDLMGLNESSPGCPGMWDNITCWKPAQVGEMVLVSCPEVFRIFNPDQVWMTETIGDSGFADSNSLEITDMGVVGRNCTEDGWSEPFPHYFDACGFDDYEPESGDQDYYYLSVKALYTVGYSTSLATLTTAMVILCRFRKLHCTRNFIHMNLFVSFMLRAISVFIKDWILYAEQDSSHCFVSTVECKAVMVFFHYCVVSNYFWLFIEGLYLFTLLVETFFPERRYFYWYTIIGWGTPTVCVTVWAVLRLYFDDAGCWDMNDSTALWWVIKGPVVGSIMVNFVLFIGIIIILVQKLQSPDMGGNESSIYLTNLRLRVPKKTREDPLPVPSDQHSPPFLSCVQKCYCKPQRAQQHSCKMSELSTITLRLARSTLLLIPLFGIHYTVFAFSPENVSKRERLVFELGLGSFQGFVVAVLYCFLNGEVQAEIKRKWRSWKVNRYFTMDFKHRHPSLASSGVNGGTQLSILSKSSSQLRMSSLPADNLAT
Description: cell surface binding assay (DELFIA TRF): antibody pre-incubated with PACAP38, added to PAC1-R-expressing PC-12 cells, detected with Eu anti-human IgG. The procedure: Cells were initially seeded at 1×10⁵ cells/well in a solution of complete RPMI (“cRPMI”: RPMI medium supplemented with 10% sterile heat-inactivated FBS and 1% sterile antibiotic/antimycotic)+10% FBS, and the plates were allowed to incubate overnight at 37° C. On the day of the binding assay, antibodies at an initial concentration of 15 μg/ml were diluted at a 1:3 ratio in DELFIA® binding buffer (50 mM Tris, 150 mM NaCl, 0.1% azide, 2% horse serum) (Perkin-Elmer, Waltham, MA) to a total volume of 60 μL in a separate 96 well round bottom plate. PACAP38 was prepared for the binding assay by diluting it in DELFIA® binding buffer to a concentration of 200 nM, and then 60 μl of the diluted PACAP38 was added to each of the antibody-containing wells to form antibody: antigen complexes. Following addition of PACAP38, the antibody: antigen complexes were incubated at room temperature on a shaker for 1 hour. Separately, the PC-12 cells were prepared for addition of antibody: antigen complexes by washing the cells two times with DELFIA® wash buffer (50 mM Tris, 150 mM NaCl, 0.1% Azide) (Perkin-Elmer, Waltham, MA). After washing the cells two times and following the 1 hour room temperature incubation of the antibody: antigen complexes, 50 μl of the antibody: antigen complex was added to each well containing cells. The mixtures of cells and antibody: antigen complexes were then incubated for 30 minutes at room temperature. Following this 30 minute incubation, each mixture was washed two times with DELFIA® wash buffer (Perkin-Elmer, Waltham, MA).
DELFIA® Europium labeled anti-human IgG detection reagent (Cat #1244-330, Perkin-Elmer, Waltham, MA) was diluted to a concentration of 300 ng/ml in DELFIA® Binding Buffer. Following dilution, 50 μl of the anti-human IgG detection reagent was added to each well containing cells, and a 30 minute incubation at room temperature followed this addition of IgG detection reagent. After completion of the 30 minute room temperature incubation, the cells were then washed two times with DELFIA® wash buffer. Next, 50 μl of DELFIA® Enhancement Solution (Cat #1244-105, Perkin-Elmer, Waltham, MA) was added to each well containing cells for a final 15 minute room temperature incubation with shaking. The plates were then read (TRF, excitation 330 nm, emission 620 nm) on a SPECTRAMAX® (Molecular Devices, Sunnyvale, CA) plate reader.

Experiment [2] concerns the target T2, PACAP27 (Pituitary Adenylate Cyclase-Activating Polypeptide, 27 amino acids) (human, the C-terminal leucine is amidated).
T2 construct: also called human PACAP27
T2 peptide: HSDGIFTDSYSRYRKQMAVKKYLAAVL
Description: competition HTRF binding assay: unlabeled PACAP27 at 10x against biotinylated PACAP38 (35 nM). As for the experimental part: In parallel, 10 μl of an antibody dilution series (highest final concentration of 100 nM) were incubated with 10 μl of N-terminal or C-terminal biotinylated PACAP38 (35 nM final) alone, or in combination with either PACAP27 (350 nM final) or VIP (350 nM final), i.e., 10× PACAP27 or 10× VIP, respectively, in a HTRF plate. 20 μl of Eu³⁺ cryptate labeled anti-hu Fc donor and 20 μl of d2-labeled streptavidin acceptor were added to each well and incubated for 1 hour at room temperature. Fluorescence was measured at 620 and 665 nm with a delay of 300 usec.

B1: Ab22 (antibody, human IgG1, kappa, N297A, V domains shown)
VH: QEQLVESGGGLVQPEGSLTLTCTASGFDFSSNAMCWVRQAPGKGLEWIGSIYNADGKNYYAIWAKGRFTISRTSSTTVTLQMTSLTAADTATYFCARDFDLWGQGTLVTVSS
VL: AAVLTQTPSPVSAAVGGTVTINCQSSQSVYDNDWLAWFQQKPGQPPKLLIYLTSTLASGVPSRFSGSGSGTQFTLTISGVQCDDAATYYCLGGYDEDGDTHVFGGGTEVVVKR
notes: Full-length anti-PACAP antibody; rabbit/human chimeric
Turning to B1, the binding result in experiment [1] is on record as “no binding (tested: about 70 nM)”; in experiment [2] it was “no binding”.
